Test [1] has as its target human FcγRIIIa 158Phe, biotinylated (UniProt P08637). In words: SPR. Particulars: read off a plot.
The target in test [2] is human FcγRIIIa 158Val, biotinylated. In words: SPR. Conditions: read off a plot.
Test [3] concerns the target anti-kappa nanobody. The experiment in a line: cSPR (cellular SPR, opsonized RBCs). Conditions: density of 1 nM and opsonization concentration of 0.625 μg/ml; parent: est. 610; read off a plot.
The target of test [4] is human FcγRIIIa 158Phe, biotinylated (UniProt P08637). In words: cSPR (cellular SPR, opsonized RBCs). Particulars: receptor density of 30 nM and opsonization concentration of 0.625 μg/ml; parent: est. 250; read off a plot.
Test [5] deals with human FcγRIIIa 158Val, biotinylated. In words: cSPR (cellular SPR, opsonized RBCs). Conditions: receptor density of 10 nM and opsonization concentration of 1.25 μg/ml; parent: est. 200; read off a plot.
Test [6] addresses human FcγRIIa 131Arg, biotinylated. The experiment in a line: cSPR (cellular SPR, opsonized RBCs). Particulars: receptor density of 30 nM and opsonization concentration of 0.625 μg/ml; parent: est. 210; read off a plot.
Test [7] has as its target human FcγRIIa 131His, biotinylated (UniProt P12318). The experiment in a line: cSPR (cellular SPR, opsonized RBCs). Particulars: receptor density of 30 nM and opsonization concentration of 2.5 μg/ml; parent: est. 310; read off a plot.
The target of test [8] is human FcγRIIIa 158Phe, biotinylated (UniProt P08637). In words: SPR; IBIS MX96; biotinylated human FcγR spotted on a SensEye G-Streptavidin sensor at 1, 3, 10 and 30 nM; 2-fold dilution series of IgG (0.49 to 1000 nM) flowed over; Kd by equilibrium fitting, interpolated to Rmax 500. On the technique in general: In SPR one partner is held on a chip, and binding of the other changes the refractive index at the surface.

The target of test [9] is human FcγRIIIa 158Val, biotinylated (human). Described as above.

Chain of human FcγRIIIa 158Phe, biotinylated (P08637 17-208): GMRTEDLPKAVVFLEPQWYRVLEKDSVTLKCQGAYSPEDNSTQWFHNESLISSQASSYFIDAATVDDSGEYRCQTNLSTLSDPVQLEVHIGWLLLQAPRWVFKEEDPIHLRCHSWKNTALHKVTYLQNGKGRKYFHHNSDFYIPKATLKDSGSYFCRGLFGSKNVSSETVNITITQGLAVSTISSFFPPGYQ
Chain of human FcγRIIa 131His, biotinylated (P12318 34-217): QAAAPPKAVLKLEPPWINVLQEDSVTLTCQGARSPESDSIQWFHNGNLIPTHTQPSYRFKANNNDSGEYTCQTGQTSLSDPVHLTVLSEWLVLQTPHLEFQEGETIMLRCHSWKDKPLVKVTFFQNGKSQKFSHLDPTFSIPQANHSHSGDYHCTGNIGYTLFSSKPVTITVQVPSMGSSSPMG

For the substance anti-RhD IgG3 allotype IGHG3*17 R292L, the Kd in test [1] (parent: est. 9.2e-7) was found to be 860 nM; in test [2] (parent: est. 2.1e-7) it was 210 nM.
“anti-RhD IgG3 allotype IGHG3*12 F296Y; P291L”: the Kd in [2] (parent: est. 2.5e-7) was found to be 210 nM. Further, the other: avidity (AUC) in test [3] was found to be 640; in test [4], 50; in test [5], 55; in [6], 11; in [7], 45.
As for “anti-RhD IgG3 allotype IGHG3*18 (antibody)”, the fold reduction of affinity against other IgG3 allotypes in test [8] and in [9] was 3 fold each time.
Regarding anti-RhD IgG3 allotype IGHG3*18 W292R, the dissociation constant (Kd) in test [1] (parent: est. 2.6e-6) stood at 880 nM; in test [2] (parent: est. 5.4e-7) it was 210 nM.
Consider anti-RhD IgG3 allotype IGHG3*17 R292W, for which the Kd in test [1] (parent: est. 9.2e-7) came out at 2800 nM; in [2] (parent: est. 2.1e-7), 540 nM.
In the same order, the values of anti-RhD IgG3 allotype IGHG3*17 R292E are 2700 nM and 580 nM.
On the same counts, the results for anti-RhD IgG3 allotype IGHG3*17 R292A are 860 nM and 220 nM.
With anti-RhD IgG1 allotype IGHG1*03 R292W, the Kd in test [1] (parent: est. 1.5e-6) was 4400 nM; in test [2] (parent: est. 2.7e-7) it was 470 nM.
As to “anti-RhD IgG3 allotype IGHG3*19 (antibody)”, the fold reduction of affinity against other IgG3 allotypes in test [8] and in test [9] was 3 fold in each case.
Take anti-RhD IgG3 allotype IGHG3*01 R292W: the Kd in [1] (parent: est. 8.1e-7) turned out to be 1900 nM; in [2] (parent: est. 1.7e-7), 340 nM.
Turning to anti-RhD IgG3 allotype IGHG3*17 R292H, the values for the dissociation constant (Kd) in test [1] (parent: est. 9.2e-7) and in test [2] (parent: est. 2.1e-7) were 810 nM and 200 nM, respectively.

In general, Kd refers to the concentration at which binding is half-saturated.

The record behind these values is paper PMC7218058.
